Values quoted from earlier work, collected in PMC4526918.

Molecular target: HAESA-LIKE2 (HSL2) (Arabidopsis thaliana) (UniProt C0LGX3)
UniProt C0LGX3, sequence (C0LGX3 29-632): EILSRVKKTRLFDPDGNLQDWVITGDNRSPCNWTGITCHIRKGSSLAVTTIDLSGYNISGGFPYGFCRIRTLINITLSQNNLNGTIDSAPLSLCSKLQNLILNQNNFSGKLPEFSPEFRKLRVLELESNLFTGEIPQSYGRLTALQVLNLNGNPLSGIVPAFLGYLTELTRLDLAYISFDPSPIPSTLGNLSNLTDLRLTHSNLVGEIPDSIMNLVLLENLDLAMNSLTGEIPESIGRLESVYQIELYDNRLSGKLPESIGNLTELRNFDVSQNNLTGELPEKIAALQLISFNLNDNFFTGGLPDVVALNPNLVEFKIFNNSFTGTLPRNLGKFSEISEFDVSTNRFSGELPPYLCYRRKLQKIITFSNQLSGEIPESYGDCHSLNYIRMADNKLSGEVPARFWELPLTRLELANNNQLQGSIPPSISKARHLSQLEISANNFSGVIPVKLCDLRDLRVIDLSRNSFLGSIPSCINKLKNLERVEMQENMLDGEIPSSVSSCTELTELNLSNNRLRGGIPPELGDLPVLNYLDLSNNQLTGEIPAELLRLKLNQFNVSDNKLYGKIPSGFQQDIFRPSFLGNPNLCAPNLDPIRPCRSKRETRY

Substance: IDA peptide (IDAp) (from UniProt Q8LAD7)
- Kd: 20 nM
